Changes are numbered by the printed parent chain.

Series [1] concerns the target T1, FOXK2(228-382) (UniProt Q01167 228-382). Kind of series: EMSA; competition; labelled WT probe; unlabelled WT competitor 25-200x; EMSA: 75 mM KCl, room temperature 30 min, 5% PAGE in 0.25x TBE at 4 C; pull-down conditions not in material. The note with it: protein: recombinant; tags: 6xHis; label: radioactive label (probe); 5' overhang 4 nt at both ends. A general note: In EMSA bound probe runs differently from free probe, usually more slowly.

In series [2] the target is T2, FOXO3(130-271) (UniProt O43524 130-271). The description is as above. The note with it: protein: recombinant; tags: 6xHis; label: radioactive label (probe); 5' overhang 4 nt at both ends.
For series [3], the target named is T1, FOXK2(228-382). As to the kind of experiment: competition; unlabelled competitor 25-200x; competes equally to WT; EMSA: 75 mM KCl, room temperature 30 min, 5% PAGE in 0.25x TBE at 4 C; pull-down conditions not in material. The note with it: protein: recombinant; tags: 6xHis; 5' overhang 4 nt at both ends.
Series [4] addresses T2, FOXO3(130-271). The description is as above. The note with it: protein: recombinant; tags: 6xHis; 5' overhang 4 nt at both ends.

T2 sequence (O43524 130-271): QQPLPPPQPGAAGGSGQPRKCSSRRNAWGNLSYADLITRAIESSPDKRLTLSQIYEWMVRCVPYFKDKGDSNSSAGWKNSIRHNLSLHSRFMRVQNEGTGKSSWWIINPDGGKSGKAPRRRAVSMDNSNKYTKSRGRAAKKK
T1 sequence (Q01167 228-382): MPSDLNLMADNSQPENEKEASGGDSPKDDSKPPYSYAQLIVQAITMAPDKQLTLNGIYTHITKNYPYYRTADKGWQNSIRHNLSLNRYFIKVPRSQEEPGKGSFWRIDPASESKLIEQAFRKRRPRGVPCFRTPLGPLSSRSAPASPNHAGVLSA

B1: CYP27C1 WT (ADS2782/ADS2783) (dsDNA)
DNA 1: CTAGAACATGTTAATGTAAACAAGGAAGCCTG
DNA 2: CTAGCAGGCTTCCTTGTTTACATTAACATGTT
As to B1, the binding result with FOXK2(228-382) [1] and with FOXO3(130-271) [2] was “binds” throughout.

B2: CYP27C1mut2 (ADS3739/ADS3740) (dsDNA)
DNA 1: B1 DNA 1 with A23G, G24A
DNA 2: B1 DNA 2 with C13T, T14C
On to B2, for which the binding result with FOXK2(228-382) [3] and with FOXO3(130-271) [4] was “binds” throughout.

B3: CYP27C1mut1 (ADS3737/ADS3738) (dsDNA)
DNA 1: B1 DNA 1 with A14G, T15G
DNA 2: B1 DNA 2 with A22C, T23C
Turning to B3, in the series with FOXO3(130-271) [4], the binding result was “binds”.

For the origin of these results see paper PMC4770209, “Genome-wide binding studies reveal DNA binding specificity mechanisms and functional interplay amongst Forkhead transcription factors”.
